The record followed here is US20250027945A1 (University of California, published 2025).

Experiment [1] addresses T1, human RYK on the surface of human tumor cell lines (human, UniProt P34925 46-607).
T1 construct: whole, on cells; Endogenous expression
Nature of the experiment: flow cytometry, A549 cells (lung), 5 ug/ml 2-D11-Alexa647. On the procedure: (§1) Table 1 provides the flow cytometry data on various cancer cell lines stained with fluorochrome-conjugated 2-D11, as depicted in FIG. 8. The name of each cell line is listed in the first column and the tissue of origin is listed in the second column. Binding of the 2-D11 mAb to human RYK was assessed by flow cytometric staining and analysis by staining on ice for 20 minutes with 5 μg/ml of 2-D11 anti-human RYK-Alexa647 conjugated mAb or equal amounts of isotype matched control mAb, washed, and analyzed. The median fluorescence intensity (MFI) of 2-D11 stained cells is listed in the middle column and the MFI of isotype control stained cells are listed in the in the adjacent column. Cell lines were scored as “++”, “+”, or neg (unmarked with “+”) lines based on the ratio of median fluorescence intensity (MFI) of stained cells relative to the MFI of isotype control stained cells (MFIR).
(§2) The name of each cell line is listed in the first column and the tissue of origin is listed in the second column. Binding of the 2-D11 mAb to human RYK was assessed by flow cytometric staining and analysis by staining on ice for 20 minutes with 5 μg/ml of 2-D11 anti-human RYK-Alexa647 conjugated mAb or equal amounts of isotype matched control mAb, washed and analyzed. […]
In general terms: In flow cytometry, cells or beads pass a laser one at a time.

Experiment [2] has as its target T1, human RYK on the surface of human tumor …. Briefly: flow cytometry, H460 cells (lung), 5 ug/ml 2-D11-Alexa647. Here is the method:
as §1, §2

Experiment [3] shares this target. Nature of the experiment: flow cytometry, MINO cells (mantle), 5 ug/ml 2-D11-Alexa647. Here is the method:
as §1, §2

Experiment [4] addresses T2, recombinant human RYK protein used in KinExA (human, UniProt P34925 46-227, limits assumed).
T2 construct: Legend prints 'RYK2'; also called recombinant human RYK2 protein
Briefly: KinExA 3200, soluble RYK competitor against RYK-coated particles. On the procedure: Analysis was performed using a KinExA 3200 instrument. FIG. 7A: The proportion of anti-human RYK mAb bound to particles coated with RYK protein (y-axis) in the presence of increasing molar (M) concentration of soluble RYK competitor (x-axis) is shown for 2-D11 mAb (upper left panel) and 7-H10 mAb (lower left panel).
For orientation: In KinExA the mixture passes briefly over coated beads that capture the unbound partner.

In experiment [5] the target is T1, human RYK on the surface of human tumor …. Nature of the experiment: flow cytometry, BT549 cells (breast), 5 ug/ml 2-D11-Alexa647. Here is the method:
as §1, §2

Experiment [6] has the same target. Nature of the experiment: flow cytometry, SH-SY5Y cells (brain), 5 ug/ml 2-D11-Alexa647. Here is the method: as §1, §2
Experiment [7] has the same target. Nature of the experiment: flow cytometry, CAPAN-1 cells (pancreas), 5 ug/ml 2-D11-Alexa647. Here is the method: as §1, §2
Experiment [8] shares this target. Nature of the experiment: flow cytometry, COLO 829 cells (melanoma), 5 ug/ml 2-D11-Alexa647. On the procedure:
as §1, §2

Experiment [9] has the same target. Briefly: flow cytometry, EW36 cells (NHL), 5 ug/ml 2-D11-Alexa647; line unmarked (no staining). On the procedure:
as §1, §2

Experiment [10] shares this target. Briefly: flow cytometry, MEC1 cells (CLL), 5 ug/ml 2-D11-Alexa647; line unmarked (no staining). Here is the method: as §1, §2
For experiment [11] the target is unchanged. Briefly: flow cytometry, H292 cells (lung), 5 ug/ml 2-D11-Alexa647; line unmarked (no staining). On the procedure: as §1, §2
Experiment [12] has the same target. Nature of the experiment: flow cytometry, MCF7 cells (breast), 5 ug/ml 2-D11-Alexa647; line unmarked (no staining). On the procedure:
as §1, §2

Experiment [13] has the same target. Briefly: flow cytometry, SK-MEL-2 cells (skin), 5 ug/ml 2-D11-Alexa647; line unmarked (no staining). Here is the method:
as §1, §2

Experiment [14] has the same target. Nature of the experiment: flow cytometry, SK-MES-1 cells (lung), 5 ug/ml 2-D11-Alexa647; line unmarked (no staining). On the procedure:
as §1, §2

Experiment [15] has the same target. Nature of the experiment: flow cytometry, SK-OV-3 cells (ovarian), 5 ug/ml 2-D11-Alexa647; line unmarked (no staining). Here is the method: as §1, §2
The target is the same in experiment [16]. Nature of the experiment: flow cytometry, RAJI cells (Burkitt NHL), 5 ug/ml 2-D11-Alexa647; line unmarked (no staining). Here is the method:
as §1, §2

Experiment [17] has the same target. Nature of the experiment: flow cytometry, JURKAT cells (T-cell ALL), 5 ug/ml 2-D11-Alexa647; line unmarked (no staining). On the procedure: as §1, §2
The target is the same in experiment [18]. Nature of the experiment: flow cytometry, RAMOS cells (Burkitt NHL), 5 ug/ml 2-D11-Alexa647; line unmarked (no staining). On the procedure: as §1, §2
Experiment [19] has the same target. Briefly: flow cytometry, NCI H929 cells (melanoma as printed), 5 ug/ml 2-D11-Alexa647; line unmarked (no staining). On the procedure:
as §1, §2

T1 sequence (P34925 46-607 limits assumed, form in doubt): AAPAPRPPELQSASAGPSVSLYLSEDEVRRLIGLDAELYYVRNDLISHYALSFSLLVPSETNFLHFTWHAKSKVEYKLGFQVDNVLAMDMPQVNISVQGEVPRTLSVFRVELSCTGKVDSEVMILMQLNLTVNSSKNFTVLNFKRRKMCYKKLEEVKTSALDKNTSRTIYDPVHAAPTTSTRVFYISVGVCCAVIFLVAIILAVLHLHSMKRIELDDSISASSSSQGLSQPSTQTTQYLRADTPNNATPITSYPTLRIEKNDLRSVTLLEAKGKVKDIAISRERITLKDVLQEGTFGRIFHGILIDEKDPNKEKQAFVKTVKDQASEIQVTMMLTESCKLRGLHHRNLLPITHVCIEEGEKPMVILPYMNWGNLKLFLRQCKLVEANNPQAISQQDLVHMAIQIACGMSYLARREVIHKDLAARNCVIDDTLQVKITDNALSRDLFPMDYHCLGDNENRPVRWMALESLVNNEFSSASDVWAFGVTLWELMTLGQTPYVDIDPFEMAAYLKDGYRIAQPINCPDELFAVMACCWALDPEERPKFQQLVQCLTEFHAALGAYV
T2 sequence (P34925 46-227 limits assumed, form in doubt): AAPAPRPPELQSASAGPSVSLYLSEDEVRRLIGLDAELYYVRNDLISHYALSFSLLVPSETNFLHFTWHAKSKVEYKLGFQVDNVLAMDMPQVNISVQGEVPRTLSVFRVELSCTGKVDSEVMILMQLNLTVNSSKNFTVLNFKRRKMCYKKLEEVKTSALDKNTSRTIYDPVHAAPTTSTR

B1: 2-D11 anti-human RYK mAb (antibody, V domains shown)
VH: QVQLKESGPGLVAPSQSLSITCSVSGFSLNDYGVNWVRQPPGKDLEWLGMIWGDGVTEYNSTLKSRLSISKDNSKSQVFLKMNNLQTEDTARYYCVRQGSGVWFAHWGQGTLVSVSS
VL: DVLVTQTPLSLPVSLGDQASISCRSSQTIVHSNGNTYLEWYLQKPGQSPKLLIYKVSNRFSGVPDRFSGSGSGTDFTLKISRVEAEDLGIYYCFQGSHVPYTFGGGTKLEIK
notes: Mouse hybridoma mAb, kappa light chain, detected with anti-mouse IgG; also called mAb 2-D11; 2-D11 anti-human RYK-Alexa647 conjugated mAb
For B1, the “MFIR (MFI ratio to isotype control)” value was determined as 1.5 in [1]; 1.5 in experiment [2]; 2 in [3]; 3.9 in experiment [5]; 2 in experiment [6]; 1.5 in experiment [7]. The “MFIR (MFI ratio to isotype control)” value in [8] came out at 2.3; in experiment [9] it was 1.1; in experiment [10], 1.1; in [11], 1.3; in [12], 1.4; in experiment [13] it was 1.1. Further, the “MFIR (MFI ratio to isotype control)” value in [14] is 1.1; in [15] it was 1.1; in experiment [16] it was 1; in [17], 1.1; in experiment [18] it was 1.1; in experiment [19], 1.2. In addition, the Kd (commonly the constant that tells how readily two partners part at equilibrium) in experiment [4] is 0.513 nM.
